The results in this text go back to publication PMC9014876, “Vault RNA1–1 riboregulates the autophagic function of p62 by binding to lysine 7 and arginine 21, both of which are critical for p62 oligomerization”.

In this data set the target is MBP-p62 WT (Homo sapiens, UniProt Q13501 1-440). As to the kind of experiment: EMSA; 2.5 mM Mg2+; bacterial tRNA and BSA; EMSA: 20 mM HEPES pH 7.9, 100 mM KCl, 2.5 mM MgCl2, 5 mM DTT, 0.2 mM EDTA, 20% glycerol, 1 mg/mL BSA, 150 nM tRNA, room temperature; NMR: 20 mM MES pH 6.5, 100. Conditions: protein: recombinant; tags: MBP; label: 32P (internal alpha-UTP for EMSA; end-labelled for footprinting); base-paired terminal stem, central flexible loop. On the technique in general: A gel shift assay detects complexes by their altered migration in electrophoresis.

B1: vault RNA1-1 WT (structured_RNA)
RNA: GGCUGGCUUUAGCUCAGCGGUUACUUCGACAGUUCUUUAAUUGAAACAAGCAACCUGUCUGGGUUGUUCGAGACCCGCGGGCGCUCUCCAGUCCUUU
As to B1, the binding result is reported as “binds”.
